Tests used:
[1] = target: T1, cell surface GPC3 on GPC3-expressing cell lines (HepG2 GPC3^high, Huh7 GPC3^med) (UniProt P51654 25-554); assay: cell-based or functional assay
His-tagged human GPC3 = target: T2, His-tagged human GPC3 (human, UniProt P51654 25-559, limits assumed); assay: Octet (BLI); His-tagged GPC3 captured on HIS1K sensors, bsAb in solution
T2 construct: Captured on HIS1K sensors in the Octet assay; also called human GPC3 antigen; Glypican 3; not shown: His tag
Method: After humanization, GPC3 binding arms were engineered with single point mutations in the variable light domain with the aim to create a ladder of GPC3 binding affinity, illustrative sequences for which are depicted in FIG. 13. 73 variable light domain variants were engineered and paired with GPC3-A H1.1 (see Example 3C for description of GPC3-A H1.1 variant). The GPC3-A variants were engineered in the 1+1 Fab-scFv-Fc bsAb format and binding for GPC3 antigen was measured using Octet, a BioLayer Interferometry (BLI)-based method. Experimental steps for Octet generally include the following: Immobilization (capture of ligand to a biosensor); Association (dipping of ligand-coated biosensors into wells containing the analyte); and Dissociation (returning of biosensors to well containing buffer). For ease of clinical development (e.g. by investigating the therapeutics in model animals), it is useful for the binding domains to be cross-reactive for cynomolgus antigen; therefore, binding to both human and cynomolgus GPC3 antigen were investigated. His-tagged human and cynomolgus GPC3 were captured on HIS1K sensors then dipped into multiple concentrations of the bispecific antibodies. The resulting dissociation constant (KD) are depicted in FIG. 23.

[2] = target: T1, cell surface GPC3 on GPC3-expressing …; assay: flow cytometry on HepG2 (GPC3high) cells, anti-human Fc secondary
Method: (§1) Next, binding of the variants to cell surface GPC3 was investigated. Illustrative affinity variants H1.1_L1.29, H1.1_L1.16, and H1.1_L1.31 were engineered in the 1+1 Fab-scFv-Fc format. […] Cells were then washed and stained with a secondary antibody (typically anti-human Fc AlexaFlour647) for 1 hr at 4° C. After 2 more washes, cells were analyzed by flow cytometry.

[3] = target: T1, cell surface GPC3 on GPC3-expressing …; assay: flow cytometry on HepG2 (GPC3high) cells, secondary antibody stain
Method: as §1

T1 sequence (P51654 25-554 limits assumed): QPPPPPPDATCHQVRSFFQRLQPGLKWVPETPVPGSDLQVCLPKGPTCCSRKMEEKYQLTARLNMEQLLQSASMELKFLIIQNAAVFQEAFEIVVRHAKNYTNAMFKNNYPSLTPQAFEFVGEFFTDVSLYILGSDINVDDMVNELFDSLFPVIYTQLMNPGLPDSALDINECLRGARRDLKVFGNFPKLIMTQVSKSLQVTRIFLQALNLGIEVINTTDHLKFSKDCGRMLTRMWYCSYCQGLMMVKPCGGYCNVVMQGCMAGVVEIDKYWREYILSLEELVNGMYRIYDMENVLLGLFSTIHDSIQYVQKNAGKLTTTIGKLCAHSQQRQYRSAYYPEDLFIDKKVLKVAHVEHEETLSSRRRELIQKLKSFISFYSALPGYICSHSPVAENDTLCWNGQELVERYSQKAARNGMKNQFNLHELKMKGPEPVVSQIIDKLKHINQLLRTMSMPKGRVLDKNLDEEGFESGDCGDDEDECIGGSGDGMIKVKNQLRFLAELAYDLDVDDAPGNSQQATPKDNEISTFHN
T2 sequence (P51654 25-559 limits assumed): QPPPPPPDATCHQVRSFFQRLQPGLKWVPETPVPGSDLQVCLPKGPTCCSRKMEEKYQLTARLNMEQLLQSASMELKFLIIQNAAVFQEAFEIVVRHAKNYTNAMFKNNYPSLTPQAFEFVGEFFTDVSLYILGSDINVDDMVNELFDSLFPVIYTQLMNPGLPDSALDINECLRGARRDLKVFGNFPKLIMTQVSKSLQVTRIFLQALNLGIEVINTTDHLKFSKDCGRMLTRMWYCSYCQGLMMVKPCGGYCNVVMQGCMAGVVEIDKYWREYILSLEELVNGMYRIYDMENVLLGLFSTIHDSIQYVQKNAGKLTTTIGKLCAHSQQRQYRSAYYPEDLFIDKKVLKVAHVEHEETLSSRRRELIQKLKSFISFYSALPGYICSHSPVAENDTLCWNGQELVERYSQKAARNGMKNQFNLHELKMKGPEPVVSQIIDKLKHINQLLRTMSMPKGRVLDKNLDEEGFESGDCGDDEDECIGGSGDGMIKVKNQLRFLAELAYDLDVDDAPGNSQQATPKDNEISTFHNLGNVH

EC50 of RTCC (2D RTCC on Incucyte, HepG2, 10:1 effector:target ratio) [1] | Kd (His-tagged human GPC3) | EC50 (read off the curve) [2] | EC50 (read off the curve) [3] | Binder
< 0.1 µg/mL | – | – | – | XENP34920 (bispecific antibody) heavy 1: QVQLVQSGAEVKKPGASVKVSCKASGYTFTDYEMHWVRQAPGQGLEWMGALEPKTGDTAYSQKFQGRVTMTADKSISTAYMELSRLRSDDTAVYYCTRFYSYTYWGQGTLVTVSSASTKGPSVFPLAPSSKSTSGGTAALGCLVKDYFPEPVTVSWNSGALTSGVHTFPAVLQSSGLYSLSSVVTVPSSSLGTQTYICNVNHKPSDTKVDKKVEPKSCDKTHTCPPCPAPPVAGPSVFLFPPKPKDTLMISRTPEVTCVVVDVKHEDPEVKFNWYVDGVEVHNAKTKPREEEYNSTYRVVSVLTVLHQDWLNGKEYKCKVSNKALPAPIEKTISKAKGQPREPQVYTLPPSREEMTKNQVSLTCDVSGFYPSDIAVEWESDGQPENNYKTTPPVLDSDGSFFLYSKLTVDKSRWEQGDVFSCSVMHEALHNHYTQKSLSLSPGK heavy 2: QVQLVQSGAEVKKPGASVKVSCKASGYTFTDYEMHWVRQAPGQGLEWMGALEPKTGDTAYSQKFQGRVTMTADKSISTAYMELSRLRSDDTAVYYCTRFYSYTYWGQGTLVTVSSASTKGPSVFPLAPSSKSTSGGTAALGCLVKDYFPEPVTVSWNSGALTSGVHTFPAVLQSSGLYSLSSVVTVPSSSLGTQTYICNVNHKPSNTKVDKKVEPKSCGGGGSGGGGSQAVVTQEPSLTVSPGGTVTLTCGSSTGAVTTSNYANWVQQKPGKSPRGLIGGTNKRAPGVPARFSGSLLGGKAALTISGAQPEDEADYYCALWYSNHWVFGGGTKLTVLGKPGSGKPGSGKPGSGKPGSEVQLVESGGGLVQPGGSLRLSCAASGFTFSTYAMNWVRQAPGKGLEWVGRIRSKANNYATYYADSVKGRFTISRDDSKNTLYLQMNSLRAEDTAVYYCVRHGNFGDSYVSWFAYWGQGTLVTVSSGGGGSGGGGSKTHTCPPCPAPPVAGPSVFLFPPKPKDTLMISRTPEVTCVVVDVKHEDPEVKFNWYVDGVEVHNAKTKPREEQYNSTYRVVSVLTVLHQDWLNGKEYKCKVSNKALPAPIEKTISKAKGQPREPQVYTLPPSREQMTKNQVKLTCLVKGFYPSDIAVEWESNGQPENNYKTTPPVLDSDGSFFLYSKLTVDKSRWQQGNVFSCSVMHEALHNHYTQKSLSLSPGK light: DVVMTQSPLSLPVTLGQPASISCRSSQSLVHSSGNTYLHWYQQRPGQSPRLLIYKVSNRFSGVPDRFSGSGSGTDFTLKISRVEAEDVGVYFCSQSTHVPPTFGSGTKLEIKRTVAAPSVFIFPPSDEQLKSGTASVVCLLNNFYPREAKVQWKVDNALQSGNSQESVTEQDSKDSTYSLSSTLTLSKADYEKHKVYACEVTHQGLSSPVTKSFNRGEC
– | 400 nM | ~3 µg/mL | ~3 µg/mL | XENP36140 (GPC3-A H1.1_L1.31 formatted as 1+1 Fab-scFv-Fc with CD3 High-Int #1 scFv) (bispecific antibody, 1+1 Fab-scFv-Fc, human IgG1 heterodimeric backbone; treated as one molecule; also called [GPC3]H1.1_L1.31) heavy: QVQLVQSGAEVKKPGASVKVSCKASGYTFTDYEMHWVRQAPGQGLEWMGALEPKTGDTAYSQKFQGRVTMTADKSISTAYMELSRLRSDDTAVYYCTRFYSYTYWGQGTLVTVSSASTKGPSVFPLAPSSKSTSGGTAALGCLVKDYFPEPVTVSWNSGALTSGVHTFPAVLQSSGLYSLSSVVTVPSSSLGTQTYICNVNHKPSDTKVDKKVEPKSCDKTHTCPPCPAPPVAGPSVFLFPPKPKDTLMISRTPEVTCVVVDVKHEDPEVKFNWYVDGVEVHNAKTKPREEEYNSTYRVVSVLTVLHQDWLNGKEYKCKVSNKALPAPIEKTISKAKGQPREPQVYTLPPSREEMTKNQVSLTCDVSGFYPSDIAVEWESDGQPENNYKTTPPVLDSDGSFFLYSKLTVDKSRWEQGDVFSCSVMHEALHNHYTQKSLSLSPGK scFv-Fc: not shown light: DVVMTQSPLSLPVTLGQPASISCRSSQSLVHSNGNTYLHWYQQRPGQSPRLLIYYVSNRFSGVPDRFSGSGSGTDFTLKISRVEAEDVGVYFCSQNTHVPPTFGSGTKLEIKRTVAAPSVFIFPPSDEQLKSGTASVVCLLNNFYPREAKVQWKVDNALQSGNSQESVTEQDSKDSTYSLSSTLTLSKADYEKHKVYACEVTHQGLSSPVTKSFNRGEC

— patent publication US20240034815A1 (Xencor, published 2024)
